# Measured values as given in patent US7763426B2, “Probes and methods for detection of Escheridia coli and antibiotic resistance” (priority 2004, dated 2010).
# {Fluorescein} = fluorescein label (binding site for anti-fluorescein Fab-HRP); {Biotin} = biotin (capture probe anchor)
# Tests used:
# Type in all cases: binding
# [1] = tested on: bacterial 16S rRNA; test: Species specificity of short probe pairs, 16 sensor array at ambient temperature (Example 5); details: for Species detected: ambient temperature hybridization; for Species not detected: * cross-reactivity at a level significantly less than with the target species
# [2] = tested on: 16S rRNA in lysates of uropathogens; test: Species specificity of uropathogen probe pairs with the electrochemical sensor array (Example 1); details: probe pairs of Table 1
# [3] = tested on: bacterial 16S rRNA; test: Clinical validity study: UTI Chip on blinded clinical urine specimens
# Procedure: Amperometric detection of bacterial 16S rRNA. An overview of the electrochemical sensor detection strategy is presented in panel C of FIG. 1. One ml of bacteria in Luria broth, inoculated clean urine, or clinical urine samples was centrifuged at 10,000×g for 5 min. The supernatant was discarded and the bacteria were lysed by resuspension of the pellet in 10 μl of 1 M NaOH and incubation at room temperature for 5 min. In some experiments, addition of 1M NaOH was preceded by resuspension of the bacterial pellet in 10 μl of 0.1% Triton X-100, 2 mM EDTA, and 1 mg/ml lysozyme (Sigma) in 20 mM Tris-HCl, pH 8.0, and incubation at room temperature for 5 min. 50 μl of the detector probe (0.25 μM) in 2.5% bovine serum albumin (Sigma, St. Louis, Mo.) 1 M phosphate buffer, pH 7.4, were added to the bacterial lysate and incubated for 10 min at 65° C. to allow target-probe hybridization. 4 μl of the bacterial lysate/detector probe mixture was deposited on each of the working electrodes in the sensor array and incubated for 15 min at 65° C. in a humidified chamber. After washing and drying, 4 μl of 0.5 U/ml anti-fluorescein horseradish peroxidase (HRP) Fab fragments (Roche, diluted in 0.5% casein in 10 mM phosphate buffered saline, pH 7.4) were deposited on each of the working electrodes for 15 min. After washing and drying, a prefabricated plastic well manifold (GeneFluidics, Monterey Park, Calif.) was bonded to the sensor array. The sensor array was put into the chip reader (FIG. 18) and 50 μl of 3,3′,5,5′-tetramethylbenzidine (TMB), H2O2 solution (K-Blue Low Activity TMB Substrate, Neogen, Lexington, Ky.) was placed on each of the sensors in the array so as to cover all three electrodes of each sensor. Electrochemical measurements are immediately and simultaneously taken for all 16 sensors. For each array, negative control (NC) sensors were tested including the UNI capture probe, detector probe, and 2.5% bovine serum albumin (Sigma, St, Louis, Mo.) in 1 M phosphate buffer, pH 7.4, instead of bacterial lysate. The entire assay protocol was completed within 45 min from the time when bacterial lysis was commenced. Amperometric current vs. time was measured using a multichannel potentiostat (GeneFluidics). The voltage was fixed at −200 mV (vs. reference), and the electroreduction current was measured at 60 s after the HRP redox reaction reached steady state.
# Clinical validity study design. Clinical urine specimens were received from routine urine cultures collected from inpatients and outpatients and submitted to the UCLA Clinical Microbiology Laboratory. Routine plating on tripticase soy agar with 5% sheep blood was performed on each specimen for phenotypic identification and colony counting while an aliquot of each specimen was held at 4° C. overnight. On the day after plating, specimens were selected for inclusion in the study on the basis of a rapid indole test for the purpose of including uropathogens other than Escherichia coli in approximately one-half of the specimens. The other half of the specimens were divided between E. coli-containing specimens and specimens determined to have ““no significant growth” or no growth” (see definitions below). Because most UTIs involve a single uropathogen, specimens determined by the clinical microbiology laboratory to have more than one organism present were excluded. Blinded specimens selected for inclusion in the study were stripped of patient identifiers and any microbiological data before delivery to the research laboratory for testing with the electrochemical sensor array.
# Experiments were performed on all specimens using the 16-sensor array ‘UTI Chip’, in which the UNI, EB, EC, PM, KE, PA, and EF capture probes (defined in Tables 1 and 2) were tested in duplicate. The two remaining sensors served as negative controls (including capture and detector probes without bacterial lysate). […]
# [4] = No Significant Growth specimens
# [5] = specimens with Enterococcus species
# [6] = specimens with Enterobacter aerogenes
# [7] = specimens with Enterobacter cloacae
# [8] = specimens with Klebsiella pneumoniae
# [9] = specimens with Citrobacter freundii
# [10] = specimens with Citrobacter koseri
# [11] = specimens with Enterobacteriaceae
# [12] = specimens with Escherichia coli
# [13] = specimens with Gram-negative bacteria
# [14] = specimens with Proteus mirabilis
# [15] = specimens with Pseudomonas aeruginosa
# [16] = specimens with Serratia marcescens
molecule,measurement,setting,value
"PA122C (15 mer)/PA107D (15 mer): Pseudomonas aeruginosa probe pair, SEQ ID NO: 50 and 51 (DNA 1 CCCACTTTCTCCCTC; DNA 2 AGGACGTATGCGGTA; DNA 1: 5' {Biotin}, sugars by position and backbone not given here; DNA 2: 3' {Fluorescein}, sugars by position and backbone not given here; listed as Pseudomonas aeruginosa)",cross-reactivity with P. mirabilis 16S,[1]; ambient temperature,Weak cross-reactivity
same,Species detected,[1],Pa
same,Species not detected,[1]; ambient temperature,"Ea, Ec, Ef, Kp, Pm*"
"EF187C (20 mer)/EF167D (20 mer): Enterococcus spp. probe pair, SEQ ID NO: 52 and 53 (DNA 1 ACCGCGGGTCCATCCATCAG; DNA 2 CGACACCCGAAAGCGCCTTT; DNA 1: 5' {Biotin}, sugars by position and backbone not given here; DNA 2: 3' {Fluorescein}, sugars by position and backbone not given here; listed as Enterococcus sp.)",Species detected,[1],Ef
same,Species not detected,[1]; ambient temperature,"Ea, Ec, Kp, Pa, Pm"
"PM197C (21 mer)/PM176D (21 mer): Proteus mirabilis probe pair, SEQ ID NO: 46 and 47 (DNA 1 CATCCGATAGTGCAAGGTCCG; DNA 2 AAGAGCCCCTGCTTTGGTCCG; DNA 1: 5' {Biotin}, sugars by position and backbone not given here; DNA 2: 3' {Fluorescein}, sugars by position and backbone not given here; listed as Proteus mirabilis)",Species detected,[1],Pm
same,Species not detected,[1]; ambient temperature,"Ea, Ec, Ef, Kp, Pa"
"EB1275C (23 mer)/EB1252C (23 mer): Enterobacteriaceae probe pair, SEQ ID NO: 54 and 55 (DNA 1 ACTTTATGAGGTCCGCTTGCTCT; DNA 2 CGCGAGGTCGCCTTCCTTTGTAT; DNA 1: DNA, 5' {Biotin}, backbone and methylation of C not given here; DNA 2: DNA, 3' {Fluorescein}, backbone and methylation of C not given here; listed as Enterobacter sp.)",Species detected,[1],"Ec, Kp, Pm, Ea"
same,Species not detected,[1]; ambient temperature,"Pa, Ef"
"KP436C (11 mer)/KP425D (11 mer): Klebsiella pneumoniae probe pair, SEQ ID NO: 48 and 49 (DNA 1 CTYAHCGCCTT; DNA 2 CCTCCCCGCTG; DNA 1: 5' {Biotin}, sugars by position, backbone and the base at N not given here; DNA 2: 3' {Fluorescein}, sugars by position and backbone not given here; listed as Klebsiella pneumoniae)",Species detected,[1],Kp
same,Species not detected,[1]; ambient temperature,"Ea, Ec, Ef, Pa, Pm"
"EF: Enterococcus spp probe pair: capture SEQ ID NO: 9, detector SEQ ID NO: 10 (nucleic acid, listed as Enterococcus sp., DNA 1: 5' {Biotin}, sugars by position and backbone not given here; DNA 2: 5' {Fluorescein}, sugars by position and backbone not given here) DNA 1: TTGGTGAGCCGTTACCTCACCAACTAGCTAATGCA DNA 2: GTCCATCCATCAGCGACACCCGAAAGCGCCTTTCA",Species detected,[2],"Ef, Eo"
same,Species not detected,[2],"Ec, Kp, Pa, Pm, Sa"
same,Mean (range),[3]; [4],0.31 log10 units over background
same,Positive/Total = Percent,[3]; [4],Ef 1/8 = 13%
same,Mean (range),[3]; [5],0.99 (0.63-1.36) log10 units over background
same,Positive/Total = Percent,[3]; [5],Ef 2/8 = 25%
"KE: Klebsiella & Enterobacter spp. probe pair: capture SEQ ID NO: 5, detector SEQ ID NO: 6 (nucleic acid, listed as Enterobacter sp., DNA 1: DNA, 5' {Biotin}, backbone, methylation of C and the base at N not given here; DNA 2: DNA, 5' {Fluorescein}, backbone and methylation of C not given here; Capture probe contains degenerate positions (M, R, Y, H)) DNA 1: GTCAATCGMCRAGGTTATTAACCTYAHCGCCTTCC DNA 2: CTGAAAGTGCTTTACAACCCGAAGGCCTTCTTCAT",Species detected,[2],"Ea, El, Ko, Kp"
same,Species not detected,[2],"Cf, Ec, Pa, Pm"
same,Mean (range),[3]; [6],0.86 (0.37-1.26) log10 units over background
same,Positive/Total = Percent,[3]; [6],KE 5/5 = 100%
same,Mean (range),[3]; [7],0.34 log10 units over background
same,Positive/Total = Percent,[3]; [7],KE 1/1 = 100%
same,Mean (range),[3]; [8],1.16 (0.76-1.50) log10 units over background
same,Positive/Total = Percent,[3]; [8],KE 7/8 = 88%
"EB: Enterobacteriaceae probe pair: capture SEQ ID NO: 11, detector SEQ ID NO: 12 (nucleic acid, listed as Enterobacter sp., DNA 1: DNA, 5' {Biotin}, backbone and methylation of C not given here; DNA 2: DNA, 5' {Fluorescein}, backbone and methylation of C not given here) DNA 1: CGGACTACGACATACTTTATGAGGTCCGCTTGCTC DNA 2: GAGGTCGCTTCTCTTTGTATATGCCATTGTAGCAC",Species detected,[2],"Cf, Ea, Ec, El, Ko, Kp, Mm, Pm,"
same,Species not detected,[2],"Ef, Eo, Pa, Sa, Ss"
same,sensitivity for detection of Gram-negative bacteria in clinical urine specimens,[3],98%
same,Positive/Total = Percent,[3]; All specimens with bacteria,46/47 = 98%^2
same,Positive/Total = Percent,[3]; No Growth specimens,0/12 = 0%
same,Positive/Total = Percent,[3]; [4],0/8 = 0%
same,Mean (range),[3]; [9],1.32 (1.25-1.38) log10 units over background
same,Positive/Total = Percent,[3]; [9],2/2 = 100%
same,Mean (range),[3]; [10],1.29 log10 units over background
same,Positive/Total = Percent,[3]; [10],1/1 = 100%
same,Mean (range),[3]; [6],1.20 (0.82-1.52) log10 units over background
same,Positive/Total = Percent,[3]; [6],5/5 = 100%
same,Mean (range),[3]; [7],1.08 log10 units over background
same,Positive/Total = Percent,[3]; [7],1/1 = 100%
same,Mean (range),[3]; [11],1.17 (0.46-1.60) log10 units over background
same,Positive/Total = Percent,[3]; [11],46/47 = 98%
same,Positive/Total = Percent,[3]; [5],0/8 = 0%
same,Mean (range),[3]; [12],1.17 (0.46-1.60) log10 units over background
same,Positive/Total = Percent,[3]; [12],25/26 = 96%
same,Mean (range),[3]; [13],1.17 (0.46-1.60) log10 units over background
same,Positive/Total = Percent,[3]; [13],46/47 = 98%^2
same,Positive/Total = Percent,[3]; specimens with Gram-positive bacteria,0/10 = 0%
same,Mean (range),[3]; [8],1.13 (0.46-1.13) log10 units over background
same,Positive/Total = Percent,[3]; [8],8/8 = 100%
same,Mean (range),[3]; [14],1.14 (0.92-1.45) log10 units over background
same,Positive/Total = Percent,[3]; [14],3/3 = 100%
same,Positive/Total = Percent,[3]; [15],0/1 = 0%
same,Mean (range),[3]; [16],1.36 log10 units over background
same,Positive/Total = Percent,[3]; [16],1/1 = 100%
same,Positive/Total = Percent,[3]; specimens with Staph. saprophyticus,0/2 = 0%
"PA: Pseudomonas aeruginosa probe pair: capture SEQ ID NO: 7, detector SEQ ID NO: 8 (nucleic acid, listed as Pseudomonas aeruginosa, DNA 1: DNA, 5' {Biotin}, backbone and methylation of C not given here; DNA 2: DNA, 5' {Fluorescein}, backbone and methylation of C not given here) DNA 1: CCCACTTTCTCCCTCAGGACGTATGCGGTATTAGC DNA 2: TTCCGGACGTTATCCCCCACTACCAGGCAGATTCC",Species detected,[2],Pa
same,Species not detected,[2],"Ec, Ef, El, Eo, Kp, Pm"
same,Mean (range),[3]; [15],0.55 log10 units over background
same,Positive/Total = Percent,[3]; [15],Pa 1/1 = 100%
same,Mean (range),[3]; [16],Pa 0.36 log10 units over background
same,Positive/Total = Percent,[3]; [16],False Positive
